Consider five substances from patent US9962447.

Assay in all cases: cell-based or functional assay
Assay [1] addresses human MOP receptor (human) (UniProt P35372).
Assay [2] addresses human DOP receptor (human) (UniProt P41143).
Assay [3] has as its target human KOP receptor (human) (UniProt P41145).
Assay [4] has as its target native mouse NOP receptor (mouse vas deferens) (mouse) (UniProt P35377).
Assay [5] concerns the target human NOP recombinant receptor (N/OFQ peptide receptor) (human) (UniProt P41146).

Chain of human DOP receptor (human) (P41143 whole entry): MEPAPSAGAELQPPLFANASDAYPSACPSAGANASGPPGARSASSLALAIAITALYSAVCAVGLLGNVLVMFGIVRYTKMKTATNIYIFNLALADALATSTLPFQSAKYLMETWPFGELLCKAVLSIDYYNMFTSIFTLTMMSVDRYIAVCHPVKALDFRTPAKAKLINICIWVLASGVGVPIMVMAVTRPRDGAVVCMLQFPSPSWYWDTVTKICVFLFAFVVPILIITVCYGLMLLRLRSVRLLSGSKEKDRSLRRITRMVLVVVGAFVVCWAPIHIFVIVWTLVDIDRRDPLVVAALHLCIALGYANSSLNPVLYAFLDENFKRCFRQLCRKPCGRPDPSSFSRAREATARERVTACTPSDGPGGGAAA
Chain of native mouse NOP receptor (mouse vas deferens) (mouse) (P35377 whole entry): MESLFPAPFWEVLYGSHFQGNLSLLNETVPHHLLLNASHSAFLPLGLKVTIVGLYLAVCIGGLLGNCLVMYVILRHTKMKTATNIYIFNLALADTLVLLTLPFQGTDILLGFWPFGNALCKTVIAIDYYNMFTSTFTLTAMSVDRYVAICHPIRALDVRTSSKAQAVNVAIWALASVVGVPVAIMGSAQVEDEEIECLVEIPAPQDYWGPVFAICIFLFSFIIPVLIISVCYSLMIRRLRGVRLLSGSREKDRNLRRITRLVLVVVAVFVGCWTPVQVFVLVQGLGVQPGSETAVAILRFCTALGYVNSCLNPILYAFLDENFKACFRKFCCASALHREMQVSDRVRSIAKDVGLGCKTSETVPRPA
Chain of human MOP receptor (human) (P35372 whole entry): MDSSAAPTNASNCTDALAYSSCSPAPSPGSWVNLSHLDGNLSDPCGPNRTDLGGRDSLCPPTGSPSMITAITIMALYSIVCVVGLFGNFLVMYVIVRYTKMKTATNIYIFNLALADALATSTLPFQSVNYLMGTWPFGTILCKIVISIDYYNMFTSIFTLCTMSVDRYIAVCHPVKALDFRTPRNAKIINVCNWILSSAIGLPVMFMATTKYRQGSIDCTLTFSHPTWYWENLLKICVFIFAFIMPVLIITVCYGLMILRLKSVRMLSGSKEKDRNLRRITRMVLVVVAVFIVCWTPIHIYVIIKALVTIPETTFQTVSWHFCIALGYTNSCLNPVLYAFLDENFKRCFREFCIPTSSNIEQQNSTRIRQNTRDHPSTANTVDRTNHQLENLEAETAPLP
Chain of human NOP recombinant receptor (N/OFQ peptide receptor) (human) (P41146 whole entry): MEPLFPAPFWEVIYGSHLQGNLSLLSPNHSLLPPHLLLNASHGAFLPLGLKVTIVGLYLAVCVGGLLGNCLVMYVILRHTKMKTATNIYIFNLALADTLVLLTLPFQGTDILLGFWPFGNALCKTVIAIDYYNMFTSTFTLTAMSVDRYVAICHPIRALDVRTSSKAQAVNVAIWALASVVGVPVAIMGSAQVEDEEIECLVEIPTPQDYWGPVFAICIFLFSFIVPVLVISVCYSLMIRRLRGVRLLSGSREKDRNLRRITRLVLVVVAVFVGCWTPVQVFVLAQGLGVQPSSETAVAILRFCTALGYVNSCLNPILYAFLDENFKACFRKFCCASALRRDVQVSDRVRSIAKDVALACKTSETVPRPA
Chain of human KOP receptor (human) (P41145 whole entry): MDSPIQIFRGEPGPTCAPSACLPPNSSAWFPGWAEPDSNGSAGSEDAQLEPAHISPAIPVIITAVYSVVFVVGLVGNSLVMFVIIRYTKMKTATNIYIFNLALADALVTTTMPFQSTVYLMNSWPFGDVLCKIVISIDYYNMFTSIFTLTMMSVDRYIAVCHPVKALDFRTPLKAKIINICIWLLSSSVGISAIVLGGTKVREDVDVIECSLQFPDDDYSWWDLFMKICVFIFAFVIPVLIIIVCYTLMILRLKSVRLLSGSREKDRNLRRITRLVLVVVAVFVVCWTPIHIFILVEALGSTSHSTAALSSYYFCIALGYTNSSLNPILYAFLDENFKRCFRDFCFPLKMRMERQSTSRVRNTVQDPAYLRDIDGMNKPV

As to “PWT2-N/OFQ (supramolecular aggregate of the PWT2 maleimido core with [Cys18]N/OFQ-NH2) (from UniProt Q13519 20-176)”, the calcium mobilization, potency in assay [1] is above 1000 nM. The calcium mobilization, potency in assay [2] is above 1000 nM. Further, the calcium mobilization, potency in assay [3] is above 1000 nM. In assay [4], this substance had an electrically stimulated mouse vas deferens, Emax (% inhibition of control twitch) of 93; an electrically stimulated mouse vas deferens, pEC50 (pEC50 (-log10 M)) of 7.78; a mouse vas deferens from NOP(+/+) mice, Emax of 91%; a mouse vas deferens from NOP(+/+) mice, pEC50 (pEC50 (-log10 M)) of 7.92.

Consider “dynorphin A (from UniProt P01213 207-223) (peptide)”, for which the calcium mobilization, potency in assay [5] is above 1000 nM. Further, in assay [1], the calcium mobilization, pEC50 (pEC50 (-log10 M)) came to 6.67.

For DPDPE (peptide), the calcium mobilization, potency in assay [5], in assay [1] and in assay [3] was above 1000 nM in each case. The calcium mobilization, maximal effects in assay [2] was 86%. The calcium mobilization, pEC50 (pEC50 (-log10 M)) in assay [2] amounted to 9.57.

For “nociceptin/orphanin FQ (N/OFQ) peptide (from UniProt Q13519 20-176)”, the calcium mobilization, potency in assay [1] is above 1000 nM. Also, the calcium mobilization, potency in assay [2] is above 1000 nM. Further, the calcium mobilization, potency in assay [3] was above 1000 nM. In assay [4], this substance displayed an electrically stimulated mouse vas deferens, Emax (% inhibition of control twitch) of 88; an electrically stimulated mouse vas deferens, pEC50 (pEC50 (-log10 M)) of 7.37; a mouse vas deferens from NOP(+/+) mice, Emax of 92%; a mouse vas deferens from NOP(+/+) mice, pEC50 (pEC50 (-log10 M)) of 7.68.

For dermorphin (peptide), the calcium mobilization, potency in assay [5], in assay [2] and in assay [3] was above 1000 nM each time. For the same substance, the calcium mobilization, maximal effects in assay [1] was found to be 135%.
